Target: the molecule itself
Assay: crystal structure; sitting drop, 295 K; protein 6.9 mg/ml in 25 mM HEPES, 50 mM NaCl, 0.5 mM DTT pH 7.0; reservoir 60%(v/v) Tacsimate pH 7.0; apo enzyme; 2.15 Å; two molecules (one dimer) in the asymmetric unit

B1: sucrose phosphorylase from Alteromonas mediterranea (enzyme)
chain: MGSIRNGVQLITYADRLGDGNIESLTNLLDGPLKGLFKGVHILPFYYPYDGEDAGFDPIDHTTVDERLGDWNNIKKLGESVDIMADLIVNHMSGQSEAFTDVLKKGRESEYWPLFLTKEDVFSGNDQAEIDEQIAKVFRPRPTPFFSDYEVGIETDSTETVPFWTTFTSNQIDIDVESELGKEYLSSILQSFTESNVDLIRLDAAGYAIKRAGSNCFMLEETFEFIEALSKRARTMGMQCLVEIHSHYQTQIDIAARCDSVYDFALPPLVLHTLFTKDASALAHWLSISPRNCFTVLDTHDGIGIVDVGASGDKPGLISADAINALVEQIHVNSNGESKKATGAAANNVDLYQVNCTYYDALGKDDFAYLVARAIQFFSPGIPQVYYGGLLAAHNDMELLANTNVGRDINRPYLTTAMVEDAIQKPVVKGLMQLITLRNENKAFGGAFDVTYTDNTLVLSWSNDGDAASLTVDFAAMDATINTVSNGEESTLSIGALLA
notes: sucrose phosphorylase (AmSP-WT), Alteromonas mediterranea, UniProt S5AE64_9ALTE; synthetic gene in pET-28b; also called AmSP; AmSP-WT; source: E. coli BL21(DE3), purified (Ni-NTA IMAC, size-exclusion chromatography)
- stoichiometry N: 2
